Source: publication PMC3573117, “Identification of the SlmA Active Site Responsible for Blocking Bacterial Cytokinetic Ring Assembly over the Chromosome” (PLoS Genetics, 2013)

Target: T1, FtsZ(D212N) (UniProt P0A9A6 1-383, D212N)
T1 construct: FtsZ, tubulin-like cell division protein, GTPase-defective derivative D212N; Polymerised with 5 mM GTP in the assay; also called FtsZ(D212N) polymers; FtsZ(D212N) protofilaments
T1 sequence (looked up): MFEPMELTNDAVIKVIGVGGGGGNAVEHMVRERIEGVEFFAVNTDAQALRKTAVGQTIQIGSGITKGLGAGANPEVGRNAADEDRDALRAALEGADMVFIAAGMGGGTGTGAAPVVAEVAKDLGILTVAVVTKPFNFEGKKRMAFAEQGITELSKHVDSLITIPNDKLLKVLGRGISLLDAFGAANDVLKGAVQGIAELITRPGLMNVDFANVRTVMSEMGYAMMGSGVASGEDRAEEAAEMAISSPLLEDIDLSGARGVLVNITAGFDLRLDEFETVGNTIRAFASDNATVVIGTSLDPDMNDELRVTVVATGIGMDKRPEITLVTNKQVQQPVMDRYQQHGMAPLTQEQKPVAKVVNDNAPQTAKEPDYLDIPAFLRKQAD
Assay: co-sedimentation; FtsZ(D212N) 5 µM with GTP 5 mM, SBS17 DNA 2.5 µM and SlmA derivative 5 µM, room temperature 15 min; 80,000 rpm, TLA100.2 rotor, 15 min; supernatant and pellet on SDS-PAGE, Coomassie
Conditions: both partners purified

B1: SlmA(WT) (natural protein, Escherichia coli, UniProt P0C093 1-198, looked up)
chain: MAEKQTAKRNRREEILQSLALMLESSDGSQRITTAKLAASVGVSEAALYRHFPSKTRMFDSLIEFIEDSLITRINLILKDEKDTTARLRLIVLLLLGFGERNPGLTRILTGHALMFEQDRLQGRINQLFERIEAQLRQVLREKRMREGEGYTTDETLLASQILAFCEGMLSRFVRSEFKYRPTDDFDARWPLIAAQLQ
notes: SlmA, nucleoid occlusion factor, TetR-like protein of Escherichia coli; Stood in the assay with SBS17 DNA (SlmA-SBS complex); Serves also as the parent for mutation effects seen with the BACTH fusions; also called wild-type SlmA
B1: binds.
